Source: US7378388B2, “Method of utilizing neurotrophins to manipulate reproductive capacity” (University of Medicine and Dentistry of New Jersey, priority 2001, dated 2008)

What was measured:
cumulus cells = assay: BDNF production and secretion by cultured cumulus cells (BDNF ELISA of culture medium); format: cell-based, human; settings: 10 μM forskolin, cumulus cells cultured 24 h, P=0.016
Description: Cumulus cells, which are a mass of epithelial cells surrounding the ovum in the ovarian follicle, were removed from oocytes in preparation for IVF and were dissociated in hyaluronidase (100 IU/ml, Sigma Chemical Company, St. Louis, Mo.) then washed twice with HBSS. The resulting preparation of cumulus cells was of ninety-nine percent (99%) pure.
For the purpose of examining the regulation of BDNF expression by cAMP, cumulus cells were combined between two subjects for each experiment. […] The culture media was collected after 24 hours of culture for assay of BDNF.
BDNF levels were determined using commercially available BDNF E max® immumoassay system (Promega, Madison, Wis.). The ELISA's were performed according to the manufacture's protocol. Follicular fluid, granulosa cell culture media, oocyte or embryo culture media was added to a 96-well immunoplate pre-coated with human BDNF specific monoclonal antibody. The plate was incubated at room temperature for 2 hours with shaking. Anti-BDNF monoclonal antibody was used as the capture Ab and Anti-BDNF pAb was used as reporter Ab. After washing, the amount of specifically bound pAb was detected using a species-specific anti-IgY antibody conjugated to horseradish peroxidase (HRP) as a tertiary reactant. […] Absorbency was measured at 450 nm using a microplate reader (Model Vmax kinetic microplate reader; Molecular Devices). […]

mouse oocytes [1] = assay: Effect of NT-4/5 and NT-3 on in vitro maturation of mouse oocytes; format: cell-based
Description: Eighteen 4-5 week old female C57BL/6 mice (Taconic Labs, German Town, N.Y.) were given a single intraperitoneal injection of 7.5 IU PMSG (Sigma, St. Louis, Mo.). Five hundred thirty-six (536) immature oocytes were harvested 48 hours after gonadotropin injection. Cumulus cells were removed mechanically (27 gauge insulin needles) at room temperature. Immature oocytes were equally divided into control (n=218) and experimental (n=318) groups and cultured in 5% CO2 in air, 37° C. in Human Tubal Fluid (HTF, Conception Technologies, San Diego, Calif.) for 24 and 48 hours with 1 ng/ml (n=59), 10 ng/ml (n=98) and 100 ng/mI (n=11) of 10 NT-4/5 (Peprotech, Inc. Rocky Hill, N.J.) or 10 ng/ml (n=60) and 100 ng/ml (n=60) of NT-3 (Peprotech, Inc. Rocky Hill, N.J.) to examine the percentage of germinal vesicle breakdown. The percentage of polar body extrusion was also examined. Control oocytes (n=218) were cultured in HTF under the same conditions without addition of NT-4/5 (n=158) or NT-3 (n=60).

mouse oocytes [2] = assay: Effect of BDNF upon in vitro maturation of mouse oocytes; format: cell-based; settings: 100 ng/ml BDNF
Description: Six (6) 4-5 week old female C57BL/6 mice (Taconic Labs, German Town, N.Y.) were given a single intraperitoneal injection of 7.5 IV PMSG (Sigma, St. Louis, Mo.). One hundred sixty (160) immature oocytes were harvested 48 hours after gonadotropin injection. Cumulus cells were removed mechanically (27 gauge insulin needles) at room temperature. Oocytes were equally divided into control and experimental groups. Immature oocytes (n-80) were incubated (5% CO2 in air, 37° C.) in Human Tubal Fluid (HTF, Conception Technologies, San Diego, Calif.) with 100 ng/ml BDNF (Peprotech, Inc. Rocky Hill, N.J.) Control oocytes (n=80) were cultured in HTF under the same conditions without addition of BDNF. […] (See FIG. 3).

[3] = 24 and 48 hours in culture, compared to controls

C=C[C@@]1(C)CC(=O)[C@]2(O)[C@@]3(C)[C@@H](O)CCC(C)(C)[C@@H]3[C@H](O)[C@H](OC(C)=O)[C@@]2(C)O1 [Forskolin]
increase of BDNF production (cumulus cells): 11 fold

B1: neurotrophin-3 (protein, UniProt P20783 139-257, looked up)
Neurotrophin-3: YAEHKSHRGEYSVCDSESLWVTDKSSAIDIRGHQVTVLGEIKTGNSPVKQYFYETRCKEARPVKNGCRGIDDKHWNSQCKTSQTYVRALTSENNKLVGWRWIRIDTSCVCALSRKIGRT
notes: neurotrophin, Trk C ligand (Peprotech)
germinal vesicle breakdown (mouse oocytes [1]; [3]): did not alter | mouse oocyte polar body extrusion (mouse oocytes [1]; [3]): did not alter

B2: brain-derived neurotrophic factor (protein, UniProt P23560 19-247, looked up)
Neurotrophic factor BDNF …: APMKEANIRGQGGLAYPGVRTHGTLESVNGPKAGSRGLTSLADTFEHVIEELLDEDQKVRPNEENNKDADLYTSRVMLSSQVPLEPPLLFLLEEYKNYLDAANMSMRVRRHSDPARRGELSVCDSISEWVTAADKKTAVDMSGGTVTVLEKVPVSKGQLKQYFYETKCNPMGYTKEGCRGIDKRHWNSQCRTTQSYVRALTMDSKKRIGWRFIRIDTSCVCTLTIKRGR
notes: neurotrophin, soluble polypeptide growth factor, Trk B ligand (Peprotech)
1st polar body extrusion (mouse oocytes [2]; 20 hours, control 6.3%, p=0.017): 18.8% | 1st polar body extrusion (mouse oocytes [2]; 24 hours, control 6.3%, p=0.01): 20% | 1st polar body extrusion (mouse oocytes [2]; 48 hours, control 7.5%, p=0.013): 21.3%

B3: neurotrophin-4/5 (protein, UniProt P34130 81-210, looked up)
Neurotrophin-4: GVSETAPASRRGELAVCDAVSGWVTDRRTAVDLRGREVEVLGEVPAAGGSPLRQYFFETRCKADNAEEGGPGAGGGGCRGVDRRHWVSECKAKQSYVRALTADAQGRVGWRWIRIDTACVCTLLSRTGRA
notes: neurotrophin, Trk B ligand (Peprotech)
mouse oocyte polar body extrusion (mouse oocytes [1]; 1.0 ng/ml, 48 hours, p<0.05): significantly influenced | mouse oocyte polar body extrusion (mouse oocytes [1]; 10 ng/ml, 24 hours, <0.01): significantly influenced | mouse oocyte polar body extrusion (mouse oocytes [1]; 10 ng/ml, 48 hours, p<0.01): significantly influenced | germinal vesicle breakdown (mouse oocytes [1]; [3]): did not influence | mouse oocyte polar body extrusion (mouse oocytes [1]; [3]): significantly promoted
